Test results published in patent US20240116985A1 (published 2024).
Starred links: 1 amine or outer side, 2 acyl side, 3 side chain; linkers in the order of their positions; H or OH if unused. Positions of bridges follow the written chain, without caps; N, C: chain ends. Non-standard residues stand in square brackets, D forms with d. Primed or numbered codes have the meaning given here. RdN(3) = (R)-4-(((allyloxy)carbonyl)(methyl)amino)-2-amino-2-methylbutanoic acid, stapling residue, C=CCOC(=O)N(C)CC[C@@](C)(N[*:1])C(=O)[*:2]; RgN = (R)-3-(((allyloxy)carbonyl)(methyl)amino)-2-amino-2-methylpropanoic acid (stapling residue), C=CCOC(=O)N(C)C[C@@](C)(N[*:1])C(=O)[*:2]; PyrS(3) = (S)-1-((allyloxy)carbonyl)-3-aminopyrrolidine-3-carboxylic acid, stapling residue, C=CCOC(=O)N1CC[C@@](N[*:1])(C(=O)[*:2])C1; PyrS″ = (S)-1-((allyloxy)carbonyl)-3-aminopyrrolidine-3-carboxylic acid (stapling residue), C=CCOC(=O)N1CC[C@@](N[*:1])(C(=O)[*:2])C1; RdN = (R)-4-(((allyloxy)carbonyl)(methyl)amino)-2-amino-2-methylbutanoic acid, C=CCOC(=O)N(C)CC[C@@](C)(N[*:1])C(=O)[*:2]; Az = 1-((allyloxy)carbonyl)-3-aminoazetidine-3-carboxylic acid (stapling residue), C=CCOC(=O)N1CC(N[*:1])(C(=O)[*:2])C1; PyrS = (S)-1-((allyloxy)carbonyl)-3-aminopyrrolidine-3-carboxylic acid, C=CCOC(=O)N1CC[C@@](N[*:1])(C(=O)[*:2])C1; Phe(3,4-F2) = N[C@@H](Cc1ccc(F)c(F)c1)C(=O)O; S7 = C[C@@](CCCCCC=[*:3])(N[*:1])C(=O)[*:2]; Phe(3-F) = N[C@@H](Cc1cccc(F)c1)C(=O)O; 2Pal = N[C@@H](Cc1ccccn1)C(=O)O; 3Pal = N[C@@H](Cc1cccnc1)C(=O)O; 4Pal = N[C@@H](Cc1ccncc1)C(=O)O; R8 = C=CCCCCCC[C@@](C)(N)C(=O)O; Cha = N[C@@H](CC1CCCCC1)C(=O)O; S8 = C=CCCCCCC[C@](C)(N)C(=O)O; Nle = CCCC[C@H](N)C(=O)O

T1: full-length beta-Catenin (Uniprot ID P35222) (Homo sapiens (Human), UniProt P35222 2-781)
T1 construct: Used full-length in both the FP and the AlphaScreen assay; also called B-Catenin; bCat
T1 sequence: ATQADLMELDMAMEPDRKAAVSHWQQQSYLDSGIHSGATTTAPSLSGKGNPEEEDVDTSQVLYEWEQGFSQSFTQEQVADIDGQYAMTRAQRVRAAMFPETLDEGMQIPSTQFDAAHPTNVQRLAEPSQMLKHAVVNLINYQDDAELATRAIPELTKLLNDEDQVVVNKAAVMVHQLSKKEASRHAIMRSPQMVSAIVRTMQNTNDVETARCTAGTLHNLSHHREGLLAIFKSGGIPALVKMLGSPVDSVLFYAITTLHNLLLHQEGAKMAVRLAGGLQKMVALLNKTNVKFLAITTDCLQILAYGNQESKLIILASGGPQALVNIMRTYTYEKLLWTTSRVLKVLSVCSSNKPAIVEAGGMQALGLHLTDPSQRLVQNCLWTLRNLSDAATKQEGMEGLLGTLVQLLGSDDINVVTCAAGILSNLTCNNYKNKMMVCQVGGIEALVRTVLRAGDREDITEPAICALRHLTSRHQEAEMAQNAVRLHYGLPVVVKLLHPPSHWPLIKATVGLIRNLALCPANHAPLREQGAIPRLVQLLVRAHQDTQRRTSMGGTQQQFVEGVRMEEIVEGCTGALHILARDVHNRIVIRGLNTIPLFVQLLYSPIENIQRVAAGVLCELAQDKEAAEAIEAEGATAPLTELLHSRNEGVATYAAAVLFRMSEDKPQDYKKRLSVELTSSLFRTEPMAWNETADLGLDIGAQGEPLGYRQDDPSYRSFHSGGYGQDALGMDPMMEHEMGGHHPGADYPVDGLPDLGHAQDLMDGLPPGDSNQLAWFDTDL

T2: full-length beta-Catenin (Uniprot ID P35222) (Homo sapiens (Human), UniProt P35222 2-781)
T2 construct: The assay text says 'full-length'; also called B-Catenin; bCat
T2 sequence: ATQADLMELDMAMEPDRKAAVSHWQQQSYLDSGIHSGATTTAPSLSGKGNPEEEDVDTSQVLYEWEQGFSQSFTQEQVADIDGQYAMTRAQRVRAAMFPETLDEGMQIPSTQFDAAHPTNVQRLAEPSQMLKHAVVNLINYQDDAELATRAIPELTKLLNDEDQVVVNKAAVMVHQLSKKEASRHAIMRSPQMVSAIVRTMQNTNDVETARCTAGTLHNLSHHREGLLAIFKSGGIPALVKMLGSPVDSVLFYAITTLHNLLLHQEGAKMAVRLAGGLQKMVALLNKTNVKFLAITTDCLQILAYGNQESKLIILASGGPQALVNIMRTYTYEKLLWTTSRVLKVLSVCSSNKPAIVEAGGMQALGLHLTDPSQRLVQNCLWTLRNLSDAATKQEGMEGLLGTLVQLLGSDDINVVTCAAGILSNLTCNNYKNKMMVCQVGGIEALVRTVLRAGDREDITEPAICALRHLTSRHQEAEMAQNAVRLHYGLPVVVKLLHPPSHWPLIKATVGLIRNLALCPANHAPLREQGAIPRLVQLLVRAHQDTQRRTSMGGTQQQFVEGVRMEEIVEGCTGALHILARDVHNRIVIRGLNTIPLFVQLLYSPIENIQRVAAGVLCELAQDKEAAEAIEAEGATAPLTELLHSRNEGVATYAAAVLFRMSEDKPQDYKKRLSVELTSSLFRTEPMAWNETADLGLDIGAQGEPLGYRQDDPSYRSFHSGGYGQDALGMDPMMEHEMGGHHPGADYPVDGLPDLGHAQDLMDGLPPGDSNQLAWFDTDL

B1: I-72 (peptide)
peptide: Ac-ADI[RdN]D[Cha]AAFQ[S7]FWH-NH2
modifications: staple 4-11; not fully specified; printed as Ac-Ala-Asp-Ile-RdN-Asp-Cha-Ala-Ala-Phe-Gln-S7-Phe-Trp-His-NH2
notes: Stapled peptide; also called Ac-Ala-Asp-Ile-RdN-Asp-Cha-Ala-Ala-Phe-Gln-S7-Phe-Trp-His-NH2
B2: I-73 (peptide)
peptide: Ac-ADI[RdN(3)]D[Cha]AAFQ[S7]FWH-NH2
modifications: staple 4-11; not fully specified; printed as Ac-Ala-Asp-Ile-RdN-Asp-Cha-Ala-Ala-Phe-Gln-S7-Phe-Trp-His-NH2
notes: as for B1
B3: I-74 (peptide)
peptide: Ac-FDA[R8]DDAA[Cha]V[PyrS″]FWQ-NH2
modifications: staple 4-11; not fully specified; printed as Ac-Phe-Asp-Ala-R8-Asp-Asp-Ala-Ala-Cha-Val-PyrS-Phe-Trp-Gln-NH2
notes: Stapled peptide; also called Ac-Phe-Asp-Ala-R8-Asp-Asp-Ala-Ala-Cha-Val-PyrS-Phe-Trp-Gln-NH2
B4: I-75 (peptide)
peptide: Ac-FDA[R8]DDAA[Cha]V[PyrS″]FWQ-NH2
modifications: staple 4-11; not fully specified; printed as Ac-Phe-Asp-Ala-R8-Asp-Asp-Ala-Ala-Cha-Val-PyrS-Phe-Trp-Gln-NH2
notes: as for B3
B5: I-76 (peptide)
peptide: Ac-FDA[R8]DDAA[Nle]V[PyrS(3)]FWQ-NH2
modifications: staple 4-11
notes: Stapled peptide; also called Ac-Phe-Asp-Ala-R8-Asp-Asp-Ala-Ala-nLeu-Val-PyrS-Phe-Trp-Gln-NH2
B6: I-77 (peptide)
peptide: Ac-FDA[R8]DDAA[Phe(3-F)]V[PyrS]FWQ-NH2
modifications: staple 4-11
notes: Stapled peptide; also called Ac-Phe-Asp-Ala-R8-Asp-Asp-Ala-Ala-3FF-Val-PyrS-Phe-Trp-Gln-NH2
B7: I-79 (peptide)
peptide: Ac-FDA[R8]DDAA[Phe(3,4-F2)]V[PyrS]FWQ-NH2
modifications: staple 4-11
notes: Stapled peptide; also called Ac-Phe-Asp-Ala-R8-Asp-Asp-Ala-Ala-34FF-Val-PyrS-Phe-Trp-Gln-NH2
B8: I-80 (peptide)
peptide: Ac-FDA[R8]DDAAFV[PyrS][2Pal]WQ-NH2
modifications: staple 4-11
notes: Stapled peptide; also called Ac-Phe-Asp-Ala-R8-Asp-Asp-Ala-Ala-Phe-Val-PyrS-2PyrA-Trp-Gln-NH2
B9: I-81 (peptide)
peptide: Ac-FDA[R8]DDAAFV[PyrS″][2Pal]WQ-NH2
modifications: staple 4-11
notes: as for B8
B10: I-82 (peptide)
peptide: Ac-FDA[R8]DDAAFV[PyrS″][3Pal]WQ-NH2
modifications: staple 4-11
notes: Stapled peptide; also called Ac-Phe-Asp-Ala-R8-Asp-Asp-Ala-Ala-Phe-Val-PyrS-3PyrA-Trp-Gln-NH2
B11: I-83 (peptide)
peptide: Ac-FDA[R8]DDAAFV[PyrS][3Pal]WQ-NH2
modifications: staple 4-11
notes: as for B10
B12: I-84 (peptide)
peptide: Ac-FDA[R8]DDAAFV[PyrS″][4Pal]WQ-NH2
modifications: staple 4-11; not fully specified; printed as Ac-Phe-Asp-Ala-R8-Asp-Asp-Ala-Ala-Phe-Val-PyrS-4PyrA-Trp-Gln-NH2
notes: Stapled peptide; also called Ac-Phe-Asp-Ala-R8-Asp-Asp-Ala-Ala-Phe-Val-PyrS-4PyrA-Trp-Gln-NH2
B13: I-85 (peptide)
peptide: Ac-FDA[R8]DDAAFV[PyrS][4Pal]WQ-NH2
modifications: staple 4-11; not fully specified; printed as Ac-Phe-Asp-Ala-R8-Asp-Asp-Ala-Ala-Phe-Val-PyrS-4PyrA-Trp-Gln-NH2
notes: as for B12
B14: I-40 (peptide)
peptide: Ac-FDA[R8]DDAAFV[Az]FWQ-NH2
modifications: staple 4-11; not fully specified; printed as Ac-Phe-Asp-Ala-R8-Asp-Asp-Ala-Ala-Phe-Val-Az-Phe-Trp-Gln-NH2
notes: Stapled peptide composition
B15: I-41 (peptide)
peptide: FDAXDDAAFVXFWQ
modifications: not fully specified; Ac-Phe-Asp-Ala-RdN-Asp-Asp-Ala-Ala-Phe-Val-S4-Phe-Trp-Gln-NH2 as printed: N-terminal acetyl, C-terminal amide, RdN at 4 stapled to S4 at 11
notes: Stapled peptide composition
B16: I-42 (peptide)
peptide: FDAXDDAAFVXFWQ
modifications: not fully specified; Ac-Phe-Asp-Ala-RdN-Asp-Asp-Ala-Ala-Phe-Val-S4-Phe-Trp-Gln-NH2 as printed: N-terminal acetyl, C-terminal amide, RdN at 4 stapled to S4 at 11
notes: Stapled peptide composition
B17: I-43 (peptide)
peptide: FDAXDDAAFVXFWQ
modifications: not fully specified; Ac-Phe-Asp-Ala-RgN-Asp-Asp-Ala-Ala-Phe-Val-S8-Phe-Trp-Gln-NH2 as printed: N-terminal acetyl, C-terminal amide, RgN at 4 stapled to S8 at 11
notes: Stapled peptide composition

Each binder was assayed against T1, full-length beta-Catenin (Uniprot ID …) (assay: AlphaScreen competition; full-length beta-catenin, biotin-TCF4(10-53) probe).
Experimental: (§1) Equal volume of the titrated peptide was added to the plate and incubated for 15 minutes at 20° C. Then 4 uL of donor and 4 uL acceptor beads at 10 ug/mL were added to the plate, for a 16 uL reaction pool and protected from light for 60 minutes at 20° C. prior to read. Reads were performed on a CLARIOstar plate reader (BMG Labtech) in duplicate, and data were fitted to a 1:1 binding model with hill slope using an in-house script. All provided concentrations are final concentrations.
B1 was tested, and the EC50 was at least 10 µM.
Work on B2 yielded an EC50 of at least 10 µM.
With B3 the EC50 was at least 10 µM.
B4 was tested, and the EC50 was at least 10 µM.
B5 gave an EC50 of at least 10 µM.
With B6 the EC50 was at least 10 µM.
In the case of B7, the EC50 is reported as 3.97 µM.
B8 was tested, and the EC50 was at least 10 µM.
With B9 the EC50 was 9.78 µM.
For B10, the EC50 was at least 10 µM.
Work on B11 yielded an EC50 of at least 10 µM.
Work on B12 yielded an EC50 of at least 10 µM.
B13 gave an EC50 of at least 10 µM.

What follows are binders tested against T2, full-length beta-Catenin (Uniprot ID …) (assay: AlphaScreen competition vs biotin-TCF4(10-53) on full-length beta-catenin).
Experimental: as §1
B14 gave an EC50 of at least 10 µM.
B15 was tested, and the EC50 was at least 10 µM.
With B16 the EC50 was 9.34 µM.
B17 was tested, and the EC50 was at least 10 µM.
Binder Ac-FDA[RgN]DDAAFV[S8]FWQ-NH2 (staple 4-11, Stapled peptide composition) [I-44] has an EC50 of at least 10 µM.
Binder Ac-FDA[RgN]DDAAFV[S7]FWQ-NH2 (staple 4-11, Stapled peptide composition) [I-45] has an EC50 of at least 10 µM.
